Molecular target: Nedd8-AMC (Boston Biochem), Q15843
Sequence (Q15843 whole entry, looked up): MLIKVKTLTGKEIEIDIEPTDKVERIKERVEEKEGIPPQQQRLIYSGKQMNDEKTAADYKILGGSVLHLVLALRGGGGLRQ

B1: Uch-L3 (Boston Biochem) (protein)
chain: MEGQRWLPLEANPEVTNQFLKQLGLHPNWQFVDVYGMDPELLSMVPRPVCAVLLLFPITEKYEVFRTEEEEKIKSQGQDVTSSVYFMKQTISNACGTIGLIHAIANNKDKMHFESGSTLKKFLEESVSMSPEERARYLENYDAIRVTHETSAHEGQTEAPSIDEKVDLHFIALVHVDGHLYELDGRKPFPINHGETSDETLLEDAIEVCKKFMERDPDELRFNAIALSAA
For B1, the “hydrolysis of Nedd8-AMC” value was “there was no reduction in hydrolysis of Nedd8-AMC, a ubiquitin-like protein that binds to and is cleaved by Uch-L3, when 20 nM Uch-L3 was incubated with 5 µM LDN”.

Source: US20070071724
